Measured values: publication PMC6071684, “Defining the hydrophobic interactions that drive competence stimulating peptide (CSP)-ComD binding in Streptococcus pneumoniae” (Beilstein Journal of Organic Chemistry, 2018)
Where a SMILES comes first, the peptide text is derived from it. Where no end group is shown, it is not given here. [ ]: non-standard residue; d: D form. Nva = CCC[C@H](N)C(=O)O

Assays:
ComD1 receptor = ComD1 receptor (Streptococcus pneumoniae serotype 2, UniProt A0A0H2ZM50); test: cell-based
Sequence of ComD1 receptor (A0A0H2ZM50 entry or part of it): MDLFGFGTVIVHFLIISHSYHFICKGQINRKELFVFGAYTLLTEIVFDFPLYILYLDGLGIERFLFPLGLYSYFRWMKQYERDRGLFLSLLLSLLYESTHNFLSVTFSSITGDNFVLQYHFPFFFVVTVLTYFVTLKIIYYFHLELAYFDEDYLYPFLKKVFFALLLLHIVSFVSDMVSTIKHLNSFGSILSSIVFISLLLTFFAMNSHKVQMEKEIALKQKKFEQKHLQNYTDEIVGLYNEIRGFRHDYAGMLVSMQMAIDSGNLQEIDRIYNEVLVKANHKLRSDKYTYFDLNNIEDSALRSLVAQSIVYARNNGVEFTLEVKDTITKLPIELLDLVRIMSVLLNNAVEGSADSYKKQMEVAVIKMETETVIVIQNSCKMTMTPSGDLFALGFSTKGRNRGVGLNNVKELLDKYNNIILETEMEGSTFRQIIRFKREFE
Protocol: (§1) To assess QS modulation, we utilized the β-gal reporter strains, constructed by Lau and co-worker. In these strains the lacZ gene is under the control of QS (pcomX). Thus, upon QS activation, ComE will bind pcomX and transcribe lacZ (in addition to upregulation of ComX). ComD modulation can therefore be quantified by measuring β-gal activity. The peptides were first screened for their ability to activate/inhibit the ComD1 and ComD2 receptors at high concentration (10 µM).
(§2) To examine the ability of the synthesized CSP analogs to modulate the ComD receptors, and thus the QS circuit in S. pneumoniae, β-galactosidase assays were performed using D39pcomX::lacZ (group I) and TIGR4pcomX::lacZ (group II) reporter strains as described in [19].
(§3) Bacterial growth conditions. Bacteria from a freezer stock were grown as described in [19]. Briefly, the bacteria were streaked into a THY agar plate supplemented with 5% donor horse serum and chloramphenicol at a final concentration of 4 µg/mL. The plate was incubated for 8 h in a CO2 incubator (37 °C with 5% CO2). Fresh colonies (single colony for D39pcomX::lacZ; multiple colonies for TIGR4pcomX::lacZ) were picked into sterilized cultural tubes containing 5 mL of THY broth supplemented with chloramphenicol at a final concentration of 4 µg/mL and the cultures were incubated in a CO2 incubator overnight (15 h). Overnight cultures were then diluted (1:50 for D39pcomX::lacZ; 1:10 for TIGR4pcomX::lacZ) with THY and the resulting solution was incubated in a CO2 incubator for 3–4 hours, until the bacteria reached early exponential stage (0.30–0.35 for D39pcomX::lacZ; 0.20–0.25 for TIGR4pcomX::lacZ) as determined by using a plate reader.
(§4) β-Galactosidase assay. Activation assays. […] Briefly, an initial activation screening was performed at high concentration (10 µM) for all CSP analogs. 2 µL of 1 mM solution of CSP analogs in dimethyl sulfoxide (DMSO) were added in triplicate to a clear 96-well microtiter plate. […] 2 µL of DMSO was added in triplicate and served as the negative control for both groups. Then, 198 µL of bacterial culture was added to each well containing CSP and analogs, the plate was incubated at 37 °C for 30 minutes, and the OD600nm was measured. In order to measure the β-galactosidase activity in the pneumococcal culture, the cells were lysed by incubating the culture for 30 minutes at 37 °C with 20 µL of 0.1% Triton X-100. In a new plate, 100 µL of Z-buffer solution (60.2 mM Na2HPO4, 45.8 mM NaH2PO4, 10 mM KCl, and 1.0 mM MgSO4 in 18 MΩ H2O; pH was adjusted to 7.0 and the buffer was sterilized before use) containing 2-nitrophenyl-β-D-galactopyranoside (ONPG) at a final concentration of 0.4 mg/mL was added, followed by 100 µL of lysate, and the plate was incubated for 3 hours at 37 °C. The reaction was stopped by adding 50 µL of 1 M sodium carbonate solution, and the OD420nm and OD550nm were measured using a plate reader. […] For calculation of Miller units, please see data analysis below.
(§5) Analysis of activation/inhibition data. Miller units were calculated using the following formula: […]
(§6) Abs420 is the absorbance of ortho-nitrophenol (ONP). Abs550 is the scatter from cell debris, which, when multiplied by 1.75 approximates the scatter observed at 420 nm. t is the duration of incubation with ONPG in minutes, v is volume of lysate in milliliters, and Abs600 reflects cell density.

ComD2 receptor = ComD2 receptor (Streptococcus pneumoniae serotype 4, UniProt A0A0H2US84); test: cell-based; details: for ComD2 primary agonism screening: low induction, EC50 not determined: TIGR4pcomX::lacZ, 10 µM peptide, only analogs with greater than 75% activation compared to CSP2 were taken to EC50
Sequence of ComD2 receptor (A0A0H2US84 entry or part of it): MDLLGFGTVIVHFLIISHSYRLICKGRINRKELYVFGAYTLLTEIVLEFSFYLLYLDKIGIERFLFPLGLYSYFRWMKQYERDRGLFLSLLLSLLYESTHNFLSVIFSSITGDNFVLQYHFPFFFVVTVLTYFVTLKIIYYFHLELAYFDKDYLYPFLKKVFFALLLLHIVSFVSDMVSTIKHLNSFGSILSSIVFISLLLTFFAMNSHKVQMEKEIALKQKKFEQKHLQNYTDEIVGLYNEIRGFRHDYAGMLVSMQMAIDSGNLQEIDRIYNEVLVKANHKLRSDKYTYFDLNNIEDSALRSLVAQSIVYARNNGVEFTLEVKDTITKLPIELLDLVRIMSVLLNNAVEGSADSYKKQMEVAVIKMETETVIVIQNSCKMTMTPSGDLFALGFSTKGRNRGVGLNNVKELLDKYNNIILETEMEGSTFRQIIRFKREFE
Protocol: as §1, §2, §3, §4, §5, §6

[1] = molecular target: ComD1 receptor (S. pneumoniae (endogenous in D39pcomX::lacZ))
[2] = molecular target: ComD2 receptor (S. pneumoniae (endogenous in TIGR4pcomX::lacZ))

| Molecule | EC50 (ComD1 receptor) [nM] | EC50 (ComD2 receptor) [nM] | EC50 of activation of pcomX::lacZ (β-galactosidase) in reporter strain D39pcomX::lacZ (group I, ComD1) [1] [nM] | EC50 of activation of pcomX::lacZ (β-galactosidase) in reporter strain TIGR4pcomX::lacZ (group II, ComD2) [2] [nM] | ComD2 primary agonism screening: low induction, EC50 not determined (ComD2 receptor) |
| --- | --- | --- | --- | --- | --- |
| CCCC[C@H](NC(=O)[C@@H](NC(=O)[C@H](Cc1ccccc1)NC(=O)[C@H](CC(=O)O)NC(=O)[C@H](CCCNC(=N)N)NC(=O)[C@H](Cc1ccccc1)NC(=O)[C@H](Cc1ccccc1)NC(=O)[C@H](CCCCN)NC(=O)[C@H](CO)NC(=O)[C@H](CC(C)C)NC(=O)[C@H](CCCNC(=N)N)NC(=O)[C@H](CCSC)NC(=O)[C@@H](N)CCC(=O)O)[C@@H](C)CC)C(=O)N[C@@H](CCC(N)=O)C(=O)N[C@@H](CCCNC(=N)N)C(=O)N[C@@H](CCCCN)C(=O)N[C@@H](CCCCN)C(=O)O [CSP1-L13NL] | 18.6 | > 1000 | – | – | – |
| CCC[C@H](NC(=O)[C@@H](NC(=O)[C@H](Cc1ccccc1)NC(=O)[C@H](CC(=O)O)NC(=O)[C@H](CCCNC(=N)N)NC(=O)[C@H](Cc1ccccc1)NC(=O)[C@H](Cc1ccccc1)NC(=O)[C@H](CCCCN)NC(=O)[C@H](CO)NC(=O)[C@H](CC(C)C)NC(=O)[C@H](CCCNC(=N)N)NC(=O)[C@H](CCSC)NC(=O)[C@@H](N)CCC(=O)O)[C@@H](C)CC)C(=O)N[C@@H](CCC(N)=O)C(=O)N[C@@H](CCCNC(=N)N)C(=O)N[C@@H](CCCCN)C(=O)N[C@@H](CCCCN)C(=O)O [CSP1-L13NV] (H-EMRLSKFFRDFI[Nva]QRKK-OH; N-terminus assumed) | 15.2 | > 1000 | – | – | – |
| CSP1-F7HF (peptide) | – | – | 81.7 | 317 | – |
| CSP1-F8HF (peptide) | – | – | 43.4 | > 1000 | – |
| CSP1-I12L (peptide) | – | – | 8.56 | 537 | – |
| CSP1-I12NL (peptide) | – | – | 6.68 | > 1000 | – |
| CSP1-I12NV (peptide) | – | – | 13.8 | 853 | – |
| CSP1-L4I (peptide) | – | – | 10.2 | > 1000 | – |
| CSP1-L4NL (peptide) | – | – | 13.5 | > 1000 | – |
| CSP1-L4NV (peptide) | – | – | 5.74 | 627 | – |
| CSP1-L13I (peptide) | – | – | 9.12 | 705 | – |
| CSP1-L13NL (peptide) | – | – | 18.6 | > 1000 | – |
| CSP1-L13NV (peptide) | – | – | 15.2 | > 1000 | – |
| EMRISKFFRDFILQRKK-OH [CSP1-L4I] | 10.2 | > 1000 | – | – | – |
| EMRLSKFYRDFILQRKK-OH [CSP1-F8Y] | 85 | – | – | – | –^e |
| EMRLSKYFRDFILQRKK-OH [CSP1-F7Y] | 344 | – | – | – | –^e |
| EMRVSKFFRDFILQRKK-OH [CSP1-L4V] | 113 | – | – | – | –^e |
